Consider 1 substance from article PMC3591605.

pKd: −log10 of the molar value.

This experiment deals with histones (calf thymus, type IIIS) (calf (thymus)) (UniProt P02253). Kind of experiment: ITC. (Isothermal titration calorimetry measures the heat released or taken up as one component is titrated into another.)
Sequence of UniProt P02253 (P02253 whole entry): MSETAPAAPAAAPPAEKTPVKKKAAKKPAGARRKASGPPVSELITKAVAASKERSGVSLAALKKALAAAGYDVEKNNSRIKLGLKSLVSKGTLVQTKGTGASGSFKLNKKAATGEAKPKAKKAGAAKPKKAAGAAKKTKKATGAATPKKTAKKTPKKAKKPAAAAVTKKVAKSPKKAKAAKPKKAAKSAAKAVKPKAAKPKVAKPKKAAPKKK

“large fibrin degradation products (molecular masses >150 kDa) (from UniProt P02671 36-866; P02675 45-491; P02679 27-453) (complex)” showed a pKd of 6.72.

The pKd is the negative decadic logarithm of the Kd, by convention in mol/L. A higher pKd goes with a low Kd.
